Reference: patent US20220281986A1 (RESEARCH FOUNDATION FOR THE STATE UNIVERSITY OF NEW YORK, published 2022)

Target: T1, peptide corresponding to the N-terminal domain of CXCR4 (biotinylated (position not given))
T1 construct: Synthetic peptide (ABclonal), biotinylated and captured on neutravidin-coated plates; also called CXCR4 N-terminal domain; NTD of CXCR4
T1 peptide: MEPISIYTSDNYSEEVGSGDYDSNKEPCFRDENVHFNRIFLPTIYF
Assay: ELISA; serially diluted scFv on biotinylated CXCR4 N-terminal peptide captured on neutravidin
Method: The binding affinity of the anti-CXCR4 scFv was assessed with an ELISA. Purified anti-CXCR4 scFvs were serially diluted and added to a 96-well plate that was first coated with neutravidin and then coated with the biotinylated CXCR4 N-terminal peptide domain. Anti-FLAG-HRP conjugate (Sigma Aldrich) served as the primary antibody. 100 μL of Ultra-TMB substrate (Thermo Fisher Scientific) was added to quantify the amount of bound anti-CXCR4 scFv. The reaction was then quenched with 12.5 M H₂SO₄ aqueous solution. Readings were taken using a plate reader with the wavelength set to 450 nm.

B1: CXCR4-scFv (scFv)
scFv: QSVLTQPPSASGTPGQRVTISCSGSSSNIGSNYVYWYQQLPGTAPKLLIYRNNQRPSGVPDRFSGSKSGTSASLAISGLRSEDEGDYYCATWDDSLSGVVFGGGTKLTVLGEGKSSGSGSESKASQVTLKESGAEVKKPGASVKVSCKASGYTFTNFYIHWVRRAPGQGLEWMGIINPSDGRTTYAQKFQGRVTMTRDTSTSTLYMELTSLRSEDTAVYYCGRGGHYSNYFGQPSTWGQGTLVTVSVEASHHHHHH
modifications: labeled with DyLight 650 (NHS ester) in the cell binding and imaging assays; unlabeled in the ELISA
notes: also called scFv#c; anti-CXCR4 scFv
In the case of B1, the Kd is reported as 114 nM.
